The results in this text go back to publication PMC4018787 (The Journal of Cell Biology, 2014).

Assay [1] has as its target T1, recombinant fibrinogen-like (FBG) domain of tenascin-X (TNX), produced in mammalian cells (UniProt O18977 3911-4135).
T1 sequence (looked up): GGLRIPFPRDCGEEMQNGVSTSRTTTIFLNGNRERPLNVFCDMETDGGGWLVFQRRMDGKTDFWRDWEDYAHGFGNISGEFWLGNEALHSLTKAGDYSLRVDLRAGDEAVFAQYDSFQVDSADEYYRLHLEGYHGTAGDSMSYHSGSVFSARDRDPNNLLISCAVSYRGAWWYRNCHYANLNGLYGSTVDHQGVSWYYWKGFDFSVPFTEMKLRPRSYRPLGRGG
Kind of assay: ELISA.

Assay [2] has as its target recombinant full-length tenascin-X (TNX) (UniProt O18977 23-4135). Kind of assay: ELISA.

B1: inserted (I) domain of the α11 integrin chain fused to GST (domain or fragment, human, UniProt Q9UKX5-1 160-358, looked up)
chain: QTYMDIVIVLDGSNSIYPWVEVQHFLINILKKFYIGPGQIQVGVVQYGEDVVHEFHLNDYRSVKDVVEAASHIEQRGGTETRTAFGIEFARSEAFQKGGRKGAKKVMIVITDGESHDSPDLEKVIQQSERDNVTRYAVAVLGYYNRRGINPETFLNEIKYIASDPDDKHFFNVTDEAALKDIVDALGDRIFSLEGTNKN
Turning to B1, the binding result in assay [1] and in assay [2] was “binds” in each case.
